Assay in all cases: ELISA
Experiment [1] addresses T1, human EphA6 extracellular region-SEAP-His protein (human, UniProt Q9UF33 23-550).
T1 construct: extracellular domain; also called hEphA6-SEAP-His
T1 sequence (looked up): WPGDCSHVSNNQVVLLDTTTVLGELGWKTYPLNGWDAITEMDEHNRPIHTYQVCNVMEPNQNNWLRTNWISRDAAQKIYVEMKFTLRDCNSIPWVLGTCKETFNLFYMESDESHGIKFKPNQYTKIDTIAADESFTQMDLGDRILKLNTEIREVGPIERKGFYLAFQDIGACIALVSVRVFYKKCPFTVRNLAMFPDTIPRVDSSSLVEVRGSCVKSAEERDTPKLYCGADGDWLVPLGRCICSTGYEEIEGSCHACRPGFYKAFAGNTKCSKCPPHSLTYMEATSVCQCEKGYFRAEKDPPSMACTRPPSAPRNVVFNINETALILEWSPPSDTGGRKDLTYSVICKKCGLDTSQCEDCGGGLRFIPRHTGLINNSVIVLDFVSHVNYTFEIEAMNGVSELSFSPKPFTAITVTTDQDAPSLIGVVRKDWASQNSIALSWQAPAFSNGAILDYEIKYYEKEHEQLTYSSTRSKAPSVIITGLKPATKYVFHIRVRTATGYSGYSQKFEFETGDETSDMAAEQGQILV

Experiment [2] deals with T2, human EphA2 extracellular region-SEAP-His protein (human, UniProt P29317 24-537).
T2 construct: extracellular domain; also called hEphA2-SEAP-His

For another experiment, the target named is SEAP-His (UniProt P05187 23-511).
The target in experiment [3] is T3, human EphB2 extracellular region-SEAP-His protein (human, UniProt P29323 19-543).
T3 construct: extracellular domain; also called hEphB2-SEAP-His
T3 sequence (looked up): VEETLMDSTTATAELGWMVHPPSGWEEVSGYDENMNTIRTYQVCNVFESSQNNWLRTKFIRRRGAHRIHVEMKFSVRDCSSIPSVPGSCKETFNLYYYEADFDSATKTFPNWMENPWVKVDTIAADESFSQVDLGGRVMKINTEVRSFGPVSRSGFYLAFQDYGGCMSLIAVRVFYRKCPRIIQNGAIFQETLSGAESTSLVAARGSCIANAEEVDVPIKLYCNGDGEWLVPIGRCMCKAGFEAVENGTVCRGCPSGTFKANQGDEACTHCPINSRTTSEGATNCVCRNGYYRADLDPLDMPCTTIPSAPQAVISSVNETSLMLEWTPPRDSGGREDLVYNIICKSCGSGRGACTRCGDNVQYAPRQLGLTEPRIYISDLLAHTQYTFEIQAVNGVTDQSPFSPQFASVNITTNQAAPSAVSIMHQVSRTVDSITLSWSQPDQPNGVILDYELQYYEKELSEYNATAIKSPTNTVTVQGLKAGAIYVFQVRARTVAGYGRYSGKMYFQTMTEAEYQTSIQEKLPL

Experiment [4] addresses T4, human EphB6 extracellular region-SEAP-His protein (human, UniProt O15197 32-594).
T4 construct: extracellular domain; also called hEphB6-SEAP-His
T4 sequence (looked up): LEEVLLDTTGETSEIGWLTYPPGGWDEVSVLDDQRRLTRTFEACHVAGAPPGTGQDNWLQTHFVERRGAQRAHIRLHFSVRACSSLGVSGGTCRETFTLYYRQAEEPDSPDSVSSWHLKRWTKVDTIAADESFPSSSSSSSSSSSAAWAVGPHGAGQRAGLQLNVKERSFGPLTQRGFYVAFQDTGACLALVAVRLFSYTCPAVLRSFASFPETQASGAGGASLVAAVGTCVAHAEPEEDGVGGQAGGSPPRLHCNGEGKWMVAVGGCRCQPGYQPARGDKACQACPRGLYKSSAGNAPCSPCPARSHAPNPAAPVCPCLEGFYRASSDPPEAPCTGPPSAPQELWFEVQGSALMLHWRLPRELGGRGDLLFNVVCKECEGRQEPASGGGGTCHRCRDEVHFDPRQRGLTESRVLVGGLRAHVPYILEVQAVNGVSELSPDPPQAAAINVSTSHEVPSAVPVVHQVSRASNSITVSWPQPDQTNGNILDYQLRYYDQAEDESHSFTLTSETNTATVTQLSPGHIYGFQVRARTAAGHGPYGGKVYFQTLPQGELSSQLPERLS

In experiment [5] the target is T5, human EphA10 extracellular region-SEAP-His protein (human, UniProt Q5JZY3 34-565).
T5 construct: extracellular domain; also called hEphA10-SEAP-His
T5 sequence (looked up): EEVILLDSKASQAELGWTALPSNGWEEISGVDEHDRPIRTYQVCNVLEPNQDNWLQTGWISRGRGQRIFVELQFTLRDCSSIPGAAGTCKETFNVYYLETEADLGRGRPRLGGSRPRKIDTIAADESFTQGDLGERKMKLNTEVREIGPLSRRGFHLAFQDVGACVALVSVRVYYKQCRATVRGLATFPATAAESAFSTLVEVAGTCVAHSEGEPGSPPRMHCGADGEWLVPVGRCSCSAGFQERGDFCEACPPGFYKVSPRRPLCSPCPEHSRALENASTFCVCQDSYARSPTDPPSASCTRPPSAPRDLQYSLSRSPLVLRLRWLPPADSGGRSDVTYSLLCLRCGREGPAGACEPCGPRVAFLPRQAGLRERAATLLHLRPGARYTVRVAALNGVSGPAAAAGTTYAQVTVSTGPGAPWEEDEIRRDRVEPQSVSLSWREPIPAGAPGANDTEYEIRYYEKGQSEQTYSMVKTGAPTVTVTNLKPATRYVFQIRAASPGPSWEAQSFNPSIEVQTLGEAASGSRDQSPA

SEAP-His, sequence (P05187 23-511): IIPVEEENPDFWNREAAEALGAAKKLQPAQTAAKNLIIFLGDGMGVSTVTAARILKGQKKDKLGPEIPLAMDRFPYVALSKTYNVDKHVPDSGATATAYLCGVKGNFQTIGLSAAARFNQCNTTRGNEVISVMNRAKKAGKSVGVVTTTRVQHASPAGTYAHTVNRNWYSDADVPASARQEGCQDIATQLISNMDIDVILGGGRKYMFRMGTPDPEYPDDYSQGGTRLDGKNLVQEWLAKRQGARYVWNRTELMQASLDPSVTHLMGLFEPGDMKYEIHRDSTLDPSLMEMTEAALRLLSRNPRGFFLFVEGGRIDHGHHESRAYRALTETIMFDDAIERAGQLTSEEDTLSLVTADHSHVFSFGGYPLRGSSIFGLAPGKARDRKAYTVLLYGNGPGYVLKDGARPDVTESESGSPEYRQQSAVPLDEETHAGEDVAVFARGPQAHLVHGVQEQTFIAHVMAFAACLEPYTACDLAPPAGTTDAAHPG
T2 sequence (P29317 24-537): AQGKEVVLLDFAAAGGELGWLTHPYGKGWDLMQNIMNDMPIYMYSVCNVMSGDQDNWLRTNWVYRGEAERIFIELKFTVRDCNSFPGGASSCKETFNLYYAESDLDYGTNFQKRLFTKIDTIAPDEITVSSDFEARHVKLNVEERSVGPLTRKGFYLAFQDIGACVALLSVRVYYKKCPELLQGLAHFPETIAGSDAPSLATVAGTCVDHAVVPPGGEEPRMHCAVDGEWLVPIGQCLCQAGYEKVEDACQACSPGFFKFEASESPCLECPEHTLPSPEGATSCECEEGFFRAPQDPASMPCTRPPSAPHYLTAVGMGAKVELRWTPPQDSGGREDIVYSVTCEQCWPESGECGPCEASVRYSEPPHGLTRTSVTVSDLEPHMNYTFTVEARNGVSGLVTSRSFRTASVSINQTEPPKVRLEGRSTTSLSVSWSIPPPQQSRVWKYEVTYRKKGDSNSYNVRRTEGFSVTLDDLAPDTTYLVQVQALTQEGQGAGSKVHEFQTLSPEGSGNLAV

B1: humanized antibody No. 96 (antibody, human IgG1, kappa)
heavy: QVQLVQSGSELKKPGASVKVSCKASGYTFTDYSMHWVRQAPGQGLKWMGWINTETGEPTYADDFKGRFVFSLDTSVSTAYLQISSLKAEDTAVYYCARIPLYYYGSRYWYFDVWGQGTTVTVSSASTKGPSVFPLAPSSKSTSGGTAALGCLVKDYFPEPVTVSWNSGALTSGVHTFPAVLQSSGLYSLSSVVTVPSSSLGTQTYICNVNHKPSNTKVDKRVEPKSCDKTHTCPPCPAPPAAAPSVFLFPPKPKDTLMISRTPEVTCVVVDVSHEDPEVQFNWYVDGVEVHNAKTKPREEQFNSTFRVVSVLTVVHQDWLNGKEYKCKVSNKGLPAPIEKTISKTKGQPREPQVYTLPPSREEMTKNQVSLTCLVKGFYPSDIAVEWESNGQPENNYKTTPPMLDSDGSFFLYSKLTVDKSRWQQGNVFSCSVMHEALHNHYTQKSLSLSPG
light: EIVMTQSPATLSVSPGERATLSCRASENIYRNLAWYQQKPGQSPRLLIYAATNLADGIPARFSGSGSGTEYTLTISSLQSEDFAVYYCQHFWGTPWTFGQGTKVEIKRTVAAPSVFIFPPSDEQLKSGTASVVCLLNNFYPREAKVQWKVDNALQSGNSQESVTEQDSKDSTYSLSSTLTLSKADYEKHKVYACEVTHQGLSSPVTKSFNRGEC
notes: human Ig kappa; also called L2-4/HK2
With B1, the “A450 as % of hEphA4-SEAP-His” value in experiment [1] worked out at 9.8%; in experiment [2], 5.3%; with SEAP-His, 5.5%; in experiment [3], 5.5%; in experiment [4] it was 5.5%; in experiment [5], 5.3%.

These data come from patent US20190077860A1 (EISAI R AND D MANAGEMENT, published 2019).
